Laboratory results taken from patent US20230312753A1 (IMMUNORIZON, published 2023).
Residue numbers refer to the chain shown, from its start.

Tests used:
NKG2A-CD94-ECD-hFc [1] = target: T1, NKG2A-CD94-ECD-hFc (human, UniProt P26715 94-233; Q13241 32-179, limits assumed); assay: ELISA on coated NKG2A-CD94-ECD-hFc (FIG. 43D), reference IM-1062
T1 construct: extracellular domain; Lot 20200724002, 'provided by CP'; the two-chain layout here is only the reading of the name; also called human NKG2A (recombinant); NKG2A antigen; not shown: human Fc (hFc)
Protocol: Methods: ELISA binding of Tribody/ProTribody antibody constructs to antigens: Dilute target protein (hCD3epsilon-His (cat # 10977-H08S, supplier Sino Biological); h5T4-His (cat# 19845-H08H, supplier Sino Biological); NKG2A-CD94-ECD-hFc, Lot:20200724002, provided by CP; or NKG2D-ECD-hFc, Lot: 20200413002, provided by CP) into PBS with final concentration of 0.01 µg/mL for hCD3epsilon-His, 0.3 µg/mL for h5T4-His, 1 µg/mL for NKG2A-CD94-ECD-hFc and 0.7 µg/mL for hNKG2D-ECD-hFc respectively and coat 100 µL/well on ELISA plate (cat: 9018, supplier Corning) respectively. Incubate O/N, 4° C. The plates were blocked with 250 µL 1% BSA in PBST for 1 hr at 37° C.Wash 4 times with PBST. All the washes are done using Biotek (Elx 405). All the Tribody set antibodies were diluted to 400 nM and make 4-fold serially dilutions (12 points, including 0 point). Add 100 µL/well diluted antibody constructs solution to plate, incubate for 1 hr at 37° C.Wash 4 times with PBST. Add 100 µL/well anti-human kappa light chain-HRP (1:10000), incubate for 0.5 hr at 37° C. Wash 4 times with PBST. 100 µL/well of TMB substrate was added and incubated at room temperature for 5 min. 100 µL/well of 1N HCl to terminate reaction. Plates were read using ELISA plate reader at 450 nm wavelength (instrunet SpectraMax M5e). […]

[2] = target: T2, NKG2A/CD94 on CHO cells (CHOK1-NKG2A-CD94) (human, UniProt P26715 1-233; Q13241 1-179, limits assumed); assay: FACS on CHO cells over-expressing human NKG2A (FIG. 45F), reference IM-1062
T2 construct: whole, on cells; also called CHO cells over-expressing NKG2A/CD94; CHO cell line over expressing ectopic NKG2A
Protocol: (§1) Suspension cultured cells was harvested directly, and adherent cell were digested using TrypLE Express Enzyme (cat: 12604-013, supplier Life technologies). Centrifuge at 1000 rpm for 5 min and discard the supernatant. Cells are suspended at a concentration of 2×10⁶/mL in FACS buffer (2% FBS in PBS) and add 100 µL/well of cell suspension to the plate (cat #3799, supplier Corning). Centrifuging the plates at 2000 rpm for 5 min and discard the supernatant. Re-suspend the cells in 100 µL/well of Tribody set antibodies (400 nM start, 4-fold dilution, 8 point including 0 point) and incubate the plate for 60 min at 4° C. Centrifuge the plate at 2000 rpm, 4° C. for 5 min and discard supernatant. Then wash the cells 3 times with 170 µL FACS buffer. Re-suspend the cells at 100 µL/well with secondary antibody (goat anti-human Ig Fab-FITC, Cat # 2085-02, Southern biotech) with 1:400 dilution and incubate the plate for 30 min at 4° C. in dark. Centrifuge the plate at 2000 rpm, 4° C. for 5 min and discard supernatant. […] The fluorescence intensity of the staining was measured using flow cytometer (BD, FACSVerse). The geometric mean fluorescence intensity (GMFI; median fluorescence intensity (MFI)) of set antibodies staining was calculated (BD FACSuite software). Dose-response curves were generated and EC50s for thetrispecific variants binding were calculated using GraphPad Prism software.

NKG2A-CD94-ECD-hFc [3] = target: T1, NKG2A-CD94-ECD-hFc; assay: ELISA on coated NKG2A-CD94-ECD-hFc (FIG. 43D)
Protocol: (§2) Methods: ELISA binding of Tribody/ProTribody antibody constructs to antigens: Dilute target protein (hCD3epsilon-His (cat # 10977-H08S, supplier Sino Biological); h5T4-His (cat# 19845-H08H, supplier Sino Biological); NKG2A-CD94-ECD-hFc, Lot:20200724002, provided by CP; or NKG2D-ECD-hFc, Lot: 20200413002, provided by CP) into PBS with final concentration of 0.01 µg/mL for hCD3epsilon-His, 0.3 µg/mL for h5T4-His, 1 µg/mL for NKG2A-CD94-ECD-hFc and 0.7 µg/mL for hNKG2D-ECD-hFc respectively and coat 100 µL/well on ELISA plate (cat: 9018, supplier Corning) respectively. Incubate O/N, 4° C. The plates were blocked with 250 µL 1% BSA in PBST for 1 hr at 37° C.Wash 4 times with PBST. All the washes are done using Biotek (Elx 405). All the Tribody set antibodies were diluted to 400 nM and make 4-fold serially dilutions (12 points, including 0 point). Add 100 µL/well diluted antibody constructs solution to plate, incubate for 1 hr at 37° C.Wash 4 times with PBST. Add 100 µL/well anti-human kappa light chain-HRP (1:10000), incubate for 0.5 hr at 37° C. Wash 4 times with PBST. 100 µL/well of TMB substrate was added and incubated at room temperature for 5 min. 100 µL/well of 1N HCl to terminate reaction. Plates were read using ELISA plate reader at 450 nm wavelength (instrunet SpectraMax M5e). Data Analysis was performed using Graphpad prism 5 software by using nonlinear regression (curve fit): log (agonist) vs. response, agonist is antibody concentration (nM) and response is OD value.

[4] = target: T2, NKG2A/CD94 on CHO cells …; assay: FACS on CHO cells over-expressing human NKG2A (FIG. 45F)
Protocol: (§3) Then wash the cells 3 times with 170 µL FACS buffer. Re-suspend the cells at 100 µL/well with secondary antibody (goat anti-human Ig Fab-FITC, Cat # 2085-02, Southern biotech) with 1:400 dilution and incubate the plate for 30 min at 4° C. in dark. Centrifuge the plate at 2000 rpm, 4° C. for 5 min and discard supernatant. Then wash the cells 3 times with FACS buffer and analyze the sample with FACS verse. The fluorescence intensity of the staining was measured using flow cytometer (BD, FACSVerse). The geometric mean fluorescence intensity (GMFI; median fluorescence intensity (MFI)) of set antibodies staining was calculated (BD FACSuite software). Dose-response curves were generated and EC50s for thetrispecific variants binding were calculated using GraphPad Prism software.
(§4) Results: The expressed trispecific constructs were analyzed for their binding to cells expressing endogenous CD3ε, 5T4 and NKG2A/NKG2D. […] (FIG. 45F).

[5] = target: T3, 5T4 on cells (NCI-H226 endogenous; CHO over-expressing 5T4) (UniProt Q13641 32-420, limits assumed); assay: FACS on NCI-H226 cells, endogenous 5T4 (FIG. 45B)
T3 construct: whole, on cells
T3 sequence (looked up): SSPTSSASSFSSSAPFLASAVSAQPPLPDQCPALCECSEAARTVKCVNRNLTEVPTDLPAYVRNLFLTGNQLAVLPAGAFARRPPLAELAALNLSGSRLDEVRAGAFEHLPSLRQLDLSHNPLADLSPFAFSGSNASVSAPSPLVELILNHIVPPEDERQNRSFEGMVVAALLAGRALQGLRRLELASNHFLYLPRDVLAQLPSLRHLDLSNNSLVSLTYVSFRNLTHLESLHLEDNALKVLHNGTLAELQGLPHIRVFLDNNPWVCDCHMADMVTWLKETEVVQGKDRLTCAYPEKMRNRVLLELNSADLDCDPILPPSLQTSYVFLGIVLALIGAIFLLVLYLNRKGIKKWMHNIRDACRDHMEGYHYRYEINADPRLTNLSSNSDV
Protocol: as §1

[6] = target: T4, NKG2A on NK92 cells (endogenous) (UniProt P26715 1-233, limits assumed); assay: FACS on NK92 cells, endogenous NKG2A (FIG. 45C)
T4 construct: whole, on cells
Protocol: as §1

[7] = target: T3, 5T4 on cells (NCI-H226 endogenous; CHO …); assay: FACS on CHO cells over-expressing ectopic 5T4 (FIG. 45D)
Protocol: as §3, §4

[8] = target: T2, NKG2A/CD94 on CHO cells …; assay: FACS on CHO cells over-expressing ectopic NKG2A (NKG2A/CD94 by the legend) (FIG. 45E)
Protocol: as §1

NKG2A-CD94-ECD-hFc [9] = target: T1, NKG2A-CD94-ECD-hFc; assay: ELISA on coated NKG2A-CD94-ECD-hFc (FIG. 43C)
Protocol: as §2

[10] = target: T5, h5T4-His (recombinant human 5T4) (human, UniProt Q13641 32-355, limits assumed); assay: ELISA on coated h5T4-His (FIG. 43B)
T5 construct: Bought protein; also called recombinant 5T4
T5 sequence (looked up): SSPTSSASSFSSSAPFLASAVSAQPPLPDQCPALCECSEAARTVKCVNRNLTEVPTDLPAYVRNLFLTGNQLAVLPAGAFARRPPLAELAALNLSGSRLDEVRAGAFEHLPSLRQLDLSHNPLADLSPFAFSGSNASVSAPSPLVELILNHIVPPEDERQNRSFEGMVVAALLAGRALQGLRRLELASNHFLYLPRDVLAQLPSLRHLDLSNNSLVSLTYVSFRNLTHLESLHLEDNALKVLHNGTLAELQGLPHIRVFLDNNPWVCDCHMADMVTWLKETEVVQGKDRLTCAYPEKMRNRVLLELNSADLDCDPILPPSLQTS
Protocol: as §2

[11] = target: T2, NKG2A/CD94 on CHO cells …; assay: competitive FACS receptor-ligand blocking assay on CHOK1-NKG2A-CD94 cells, labelled ligand HLA-E PE (FIG. 49)

T2 sequence (P26715 whole entry, chain 1 of 2): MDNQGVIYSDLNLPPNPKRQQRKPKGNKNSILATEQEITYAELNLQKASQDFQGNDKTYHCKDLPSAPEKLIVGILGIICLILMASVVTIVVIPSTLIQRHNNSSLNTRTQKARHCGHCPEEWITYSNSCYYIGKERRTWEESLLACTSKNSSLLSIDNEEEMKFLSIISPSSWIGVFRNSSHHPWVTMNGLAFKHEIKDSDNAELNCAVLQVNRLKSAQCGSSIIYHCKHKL
T2 sequence (Q13241 whole entry, chain 2 of 2): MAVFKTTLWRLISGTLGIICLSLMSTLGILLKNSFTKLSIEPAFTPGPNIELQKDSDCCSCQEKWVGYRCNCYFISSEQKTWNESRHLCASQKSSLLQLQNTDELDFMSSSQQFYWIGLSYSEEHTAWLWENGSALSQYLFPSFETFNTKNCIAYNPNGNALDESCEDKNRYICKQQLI
T1 sequence (P26715 94-233 limits assumed, chain 1 of 2): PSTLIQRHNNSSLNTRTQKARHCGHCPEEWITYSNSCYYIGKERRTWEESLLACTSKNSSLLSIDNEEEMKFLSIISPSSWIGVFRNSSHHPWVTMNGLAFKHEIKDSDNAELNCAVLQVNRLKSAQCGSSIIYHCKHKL
T1 sequence (Q13241 32-179 limits assumed, chain 2 of 2): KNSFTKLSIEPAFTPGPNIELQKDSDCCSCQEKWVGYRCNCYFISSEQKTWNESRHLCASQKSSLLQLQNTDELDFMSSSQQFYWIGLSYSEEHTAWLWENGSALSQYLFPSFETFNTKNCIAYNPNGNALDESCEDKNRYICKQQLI
T4 sequence (P26715 whole entry): as the sequence (P26715 whole entry, chain 1 of 2) above

B1: IM-1272 bi-NKG2A scFv Tribody (other)
heavy: GGSGGSEVQLVESGGGLVQPGGSLRLSCAASGFTFNTYAMNWVRQAPGKGLEWVARIRSKYNNYATYYADSVKDRFTISRDDSKNTLYLQMNSLRAEDTAVYYCVRHGNFGNSYVSWFAYWGQGTMVTVSSASTKGPSVFPLAPSSKSTSGGTAALGCLVKDYFPEPVTVSWNSGALTSGVHTFPAVLQSSGLYSLSSVVTVPSSSLGTQTYICNVNHKPSNTKVDKRVEPKSCPPCGGGGSDIQMTQSPSSLSASVGDRVTITCRASENIYSYLAWYQQKPGKAPKLLIYNAKTLAEGVPSRFSGSGSGTDFTLTISSLQPEDFATYYCQHHYGTPRTFGGGTKVEIKGGGGSGGGGSGGGGSQVQLVQSGAEVKKPGASVKVSCKASGYTFTSYWMNWVRQAPGQGLEWMGRIDPYDSETHYAQKLQGRVTMTTDTSTSTAYMELRSLRSDDTAVYYCARGGYDFDVGTLYWFFDVWGQGTTVTVSSGGGGSDIQMTQSPSSLSASVGDRVTITCRASENIYSYLAWYQQKPGKAPKLLIYNAKTLAEGVPSRFSGSGSGTDFTLTISSLQPEDFATYYCQHHYGTPRTFGGGTKVEIKGGGGSGGGGSGGGGSQVQLVQSGAEVKKPGASVKVSCKASGYTFTSYWMNWVRQAPGQGLEWMGRIDPYDSETHYAQKLQGRVTMTTDTSTSTAYMELRSLRSDDTAVYYCARGGYDFDVGTLYWFFDVWGQGTTVTVSS
light: GGSGGSQAVVTQEPSLTVSPGGTVTLTCRSSTGAVTTSNYANWVQQKPGQAPRGLIGGTNKRAPGTPARFSGSLLGGKAALTLSGVQPEDEAEYYCALWYSNLWVFGGGTKLTVLGQPKAAPSVTLFPPSSEELQANKATLVCLISDFYPGAVTVAWKADSSPVKAGVETTTPSKQSNNKYAASSYLSLTPEQWKSHRSYSCQVTHEGSTVEKTVAPTECPPCSGGGSDIQMTQSPSSLSASVGDRVTITCRASQGISNYLAWFQQKPGKAPKSLIYRANRLQSGVPSRFSGSGSGTDFTLTISSLQPEDVATYYCLQYDDFPWTFGQGTKLEIKGGGGSGGGGSGGGGSGGGGSQVQLVQSGAEVKKPGASVKVSCKASGYTFTSFWMHWVRQAPGQGLEWMGRIDPNRGGTEYNEKAKSRVTMTADKSTSTAYMELSSLRSEDTAVYYCAGGNPYYPMDYWGQGTTVTVSS
notes: Tribody with anti-CD3 Fab, anti-5T4 scFv and two anti-NKG2A scFv in tandem
fold improved binding affinity against IM-1062 (NKG2A-CD94-ECD-hFc [1]): ~60 fold | fold improved binding affinity against IM-1062 [2]: ~80 fold | EC50 (NKG2A-CD94-ECD-hFc [3]): 0.2 nM | EC50 [4]: 0.4 nM

B2: IM-1063 variant (other)
heavy: GGSGGSEVQLVESGGGLVQPGGSLRLSCAASGFTFNTYAMNWVRQAPGKGLEWVARIRSKYNNYATYYADSVKDRFTISRDDSKNTLYLQMNSLRAEDTAVYYCVRHGNFGNSYVSWFAYWGQGTMVTVSSASTKGPSVFPLAPSSKSTSGGTAALGCLVKDYFPEPVTVSWNSGALTSGVHTFPAVLQSSGLYSLSSVVTVPSSSLGTQTYICNVNHKPSNTKVDKRVEPKSCPPCGGGGSQVQLVQSGAEVKKPGASVKVSCKASGYTFTSYWMNWVRQAPGQGLEWMGRIDPYDSETHYAQKLQGRVTMTTDTSTSTAYMELRSLRSDDTAVYYCARGGYDFDVGTLYWFFDVWGQGTTVTVSSGGGGSGGGGSGGGGSGGGGSDIQMTQSPSSLSASVGDRVTITCRASENIYSYLAWYQQKPGKAPKLLIYNAKTLAEGVPSRFSGSGSGTDFTLTISSLQPEDFATYYCQHHYGTPRTFGGGTKVEIK
light: B1 light
notes: CD3/5T4/NKG2A Tribody variant
EC50 [5]: 1.64 nM

B3: IM-1153 Tribody, CD3 mutant variant (other)
heavy: GGSGGSEVQLVESGGGLVQPGGSLRLSCAASGFTFNTYAMNWVRQAPGKGLEWVARIGSGGNGYATYYADSVKDRFTISRDDSKNTLYLQMNSLRAEDTAVYYCVRHGNFGASARSWFAYWGQGTMVTVSSASTKGPSVFPLAPSSKSTSGGTAALGCLVKDYFPEPVTVSWNSGALTSGVHTFPAVLQSSGLYSLSSVVTVPSSSLGTQTYICNVNHKPSNTKVDKRVEPKSCPPCGGGGSDIQMTQSPSSLSASVGDRVTITCRASENIYSYLAWYQQKPGKAPKLLIYNAKTLAEGVPSRFSGSGSGTDFTLTISSLQPEDFATYYCQHHYGTPRTFGGGTKVEIKGGGGSGGGGSGGGGSGGGGSQVQLVQSGAEVKKPGASVKVSCKASGYTFTSYWMNWVRQAPGQGLEWMGRIDPYDSETHYAQKLQGRVTMTTDTSTSTAYMELRSLRSDDTAVYYCARGGYDFDVGTLYWFFDVWGQGTTVTVSS
light: B1 light with T37R, S38G, Y40A, K61A, W99G, N102G
EC50 [6]: 3.7 nM | EC50 [7]: 1.33 nM | EC50 [8]: 3 nM | EC50 (NKG2A-CD94-ECD-hFc [9]): 2.1 nM | EC50 [10]: 31 nM | IC50 [11]: 18 nM
